Source: paper PMC3735781 (Journal of the American Chemical Society, 2013)

Legend:
Test in all cases: HPLC steady-state kinetics, amide hydrolysis at lactyl moiety
[1] = tested on: CC(=O)N[C@H]1[C@@H]2OC[C@@H](O2)[C@@H](O)[C@@H]1O[C@H](C)C(=O)N[C@@H](C)C(=O)N[C@H](CCC(=O)N[C@@H](CCC[C@@H](N)C(=O)O)C(=O)N[C@H](C)C(=O)O)C(=O)O; assay type: biochemical, Pseudomonas aeruginosa; conditions: 25 °C (Figure 2 reaction)
AmpDh3 = target: T1, AmpDh3 (Pseudomonas aeruginosa, UniProt Q9I5D1); assay type: biochemical; conditions: 100 μM ZnCl2
T1 sequence (Q9I5D1 1-255): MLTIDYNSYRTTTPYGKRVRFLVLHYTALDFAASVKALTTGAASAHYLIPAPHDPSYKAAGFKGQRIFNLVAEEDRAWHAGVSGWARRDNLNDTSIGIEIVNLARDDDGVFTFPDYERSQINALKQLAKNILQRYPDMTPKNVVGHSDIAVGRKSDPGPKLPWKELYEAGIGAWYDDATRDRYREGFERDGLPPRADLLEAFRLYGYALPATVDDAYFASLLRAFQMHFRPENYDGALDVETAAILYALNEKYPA

AmpDh2 = target: T2, AmpDh2 (Pseudomonas aeruginosa, UniProt Q9HT86); assay type: biochemical; conditions: 100 μM ZnCl2
T2 sequence (Q9HT86 18-259): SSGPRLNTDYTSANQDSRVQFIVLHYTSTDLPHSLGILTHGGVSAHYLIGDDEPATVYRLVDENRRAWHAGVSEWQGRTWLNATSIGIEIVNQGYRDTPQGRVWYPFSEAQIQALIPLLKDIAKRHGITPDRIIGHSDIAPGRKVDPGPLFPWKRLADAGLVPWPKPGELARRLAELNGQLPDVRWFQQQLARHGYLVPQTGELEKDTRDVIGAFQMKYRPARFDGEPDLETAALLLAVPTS

[2] = substrate: CC(=O)N[C@H]1[C@@H]2OC[C@@H](O2)[C@@H](O)[C@@H]1O[C@H](C)C(=O)N[C@@H](C)C(=O)N[C@H](CCC(=O)N[C@@H](CCC[C@@H](N)C(=O)O)C(=O)N[C@H](C)C(=O)O)C(=O)O; assay type: biochemical, Pseudomonas aeruginosa; conditions: 100 μM ZnCl2

AmpD (Pseudomonas aeruginosa PAO1) was tested, and the Km [1] was 1200 ± 300 µM, the kcat [1] was 39.8 ± 3.1 s⁻¹ and the kcat/Km [1] was 33200 ± 7500 M⁻¹ s⁻¹.

In the case of muramyl tetrapeptide 8 [compound 8], the Km (AmpDh3) is reported as 1400 ± 200 µM and the Km (AmpDh2) is reported as 1800 ± 300 µM.

B1: AmpDh3 (Pseudomonas aeruginosa PAO1) (protein)
chain: T1 sequence (Q9I5D1 1-255)
Work on B1 yielded a Km [2] of 4500 ± 600 µM, a kcat [2] of 70.6 ± 6.6 s⁻¹ and a kcat/Km [2] of 15700 ± 1900 M⁻¹ s⁻¹.
